The text below walks through data of publication PMC3350866 (Oncogene, 2006).

The target in the assay is baculovirus-expressed human Dnmt1 (human, UniProt P26358 1-1616). Description: pull-down.
Sequence of baculovirus-expressed human Dnmt1 (P26358 whole entry): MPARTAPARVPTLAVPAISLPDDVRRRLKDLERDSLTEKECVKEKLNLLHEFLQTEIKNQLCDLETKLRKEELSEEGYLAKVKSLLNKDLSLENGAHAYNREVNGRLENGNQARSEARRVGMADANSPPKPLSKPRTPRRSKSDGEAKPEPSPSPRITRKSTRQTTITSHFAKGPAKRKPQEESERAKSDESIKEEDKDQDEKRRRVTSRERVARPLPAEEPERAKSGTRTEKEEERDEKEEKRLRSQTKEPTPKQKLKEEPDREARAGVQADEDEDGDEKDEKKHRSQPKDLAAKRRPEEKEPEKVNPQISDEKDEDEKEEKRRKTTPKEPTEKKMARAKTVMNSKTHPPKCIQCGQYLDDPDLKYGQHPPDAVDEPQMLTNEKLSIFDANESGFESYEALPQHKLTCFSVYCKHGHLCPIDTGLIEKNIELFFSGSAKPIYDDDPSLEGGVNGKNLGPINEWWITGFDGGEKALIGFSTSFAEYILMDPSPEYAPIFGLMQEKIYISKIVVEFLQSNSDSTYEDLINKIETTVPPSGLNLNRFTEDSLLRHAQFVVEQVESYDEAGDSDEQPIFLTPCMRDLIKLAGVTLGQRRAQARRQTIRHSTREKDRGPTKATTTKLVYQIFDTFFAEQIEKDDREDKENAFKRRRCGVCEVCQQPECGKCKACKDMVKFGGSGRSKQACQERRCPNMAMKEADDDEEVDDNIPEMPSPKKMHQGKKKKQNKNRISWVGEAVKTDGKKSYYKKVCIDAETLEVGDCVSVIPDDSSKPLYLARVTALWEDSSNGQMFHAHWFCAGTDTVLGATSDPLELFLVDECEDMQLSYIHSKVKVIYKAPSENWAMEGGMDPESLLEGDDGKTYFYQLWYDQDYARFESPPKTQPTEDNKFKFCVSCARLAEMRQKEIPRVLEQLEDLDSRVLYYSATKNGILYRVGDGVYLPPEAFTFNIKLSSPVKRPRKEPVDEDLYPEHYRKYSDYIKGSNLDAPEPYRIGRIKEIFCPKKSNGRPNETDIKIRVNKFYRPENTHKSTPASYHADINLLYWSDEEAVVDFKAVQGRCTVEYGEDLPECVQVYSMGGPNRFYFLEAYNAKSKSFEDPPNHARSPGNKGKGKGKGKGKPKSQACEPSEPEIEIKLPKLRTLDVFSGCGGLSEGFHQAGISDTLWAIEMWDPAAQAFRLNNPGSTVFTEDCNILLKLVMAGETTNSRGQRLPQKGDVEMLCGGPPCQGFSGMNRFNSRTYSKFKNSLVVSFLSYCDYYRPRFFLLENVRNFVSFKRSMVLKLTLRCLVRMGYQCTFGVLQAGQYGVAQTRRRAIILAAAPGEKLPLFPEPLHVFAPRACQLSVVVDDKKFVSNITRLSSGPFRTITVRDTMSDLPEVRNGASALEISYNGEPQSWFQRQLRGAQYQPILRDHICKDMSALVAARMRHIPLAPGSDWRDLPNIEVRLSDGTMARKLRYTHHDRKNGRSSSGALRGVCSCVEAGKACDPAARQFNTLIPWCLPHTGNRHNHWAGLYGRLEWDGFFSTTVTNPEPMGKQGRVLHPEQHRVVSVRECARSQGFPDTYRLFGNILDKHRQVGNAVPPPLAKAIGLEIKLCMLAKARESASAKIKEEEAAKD

B1: GST-E7 (HPV-16 E7) (natural protein, UniProt P03129 1-98, looked up)
chain: MHGDTPTLHEYMLDLQPETTDLYCYEQLNDSSEEEDEIDGPAGQAEPDRAHYNIVTFCCKCDSTLRLCVQSTHVDIRTLEDLLMGTLGIVCPICSQKP
For B1, the binding result was “binds”.
